The experiment concerns the target CTSL-treated SARS-CoV-2 S protein ectodomain SR (cleaved at CS-1, T259/A260, and CS-2, Y636/S637) (SARS-CoV-2) (UniProt P0DTC2). Kind of experiment: cryo-EM structure.

For orientation: stoichiometry N means the number of molecules, sites or subunits per partner or assembly.

With “CTSL-treated SARS-CoV-2 S protein ectodomain SR (cleaved at CS-1, T259/A260, and CS-2, Y636/S637) (from UniProt P0DTC2) (domain or fragment)”, the stoichiometry N came out at 3.

Source of the values: article PMC9167920.
